Laboratory results published in the supplement of paper PMC11246515.
± gives the standard deviation of the averaged measurements.

Assay: total protein half-life in vivo (active degradation + dilution); higher = more stable protein
[1] = E. coli NCM3722 delta-clpP delta-lon delta-hslV, growth: N-lim chemostat, doubling time 6 h
[2] = E. coli NCM3722 delta-clpP, growth: N-lim chemostat, doubling time 6 h
[3] = E. coli NCM3722 delta-hslV, growth: N-lim chemostat, doubling time 6 h
[4] = E. coli NCM3722 delta-lon, growth: N-lim chemostat, doubling time 6 h
[5] = E. coli NCM3722 delta-smpB, growth: N-lim chemostat, doubling time 6 h
[6] = wild type E. coli NCM3722, growth: C-lim chemostat, doubling time 3 h
[7] = wild type E. coli NCM3722, growth: C-lim chemostat, doubling time 6 h
[8] = wild type E. coli NCM3722, growth: C-lim chemostat, doubling time 12 h
[9] = wild type E. coli NCM3722, growth: N-lim chemostat, doubling time 6 h
[10] = wild type E. coli NCM3722, growth: N-lim chemostat, doubling time 12 h
[11] = wild type E. coli NCM3722, growth: P-lim chemostat, doubling time 6 h
[12] = wild type E. coli NCM3722, growth: P-lim chemostat, doubling time 12 h

Row | Sequence | total protein half-life in vivo [1] | total protein half-life in vivo [2] | total protein half-life in vivo [3] | total protein half-life in vivo [4] | total protein half-life in vivo [5] | total protein half-life in vivo [6] | total protein half-life in vivo [7] | total protein half-life in vivo [8] | total protein half-life in vivo [9] | total protein half-life in vivo [10] | total protein half-life in vivo [11] | total protein half-life in vivo [12]
1 | MKPVKPPRINGRVPVLSAQEAVNYIPDEATLCVLGAGGGILEATTLITALADKYKQTQTPRNLSIISPTGLGDRADRGISPLAQEGLVKWALCGHWGQSPRISELAEQNKIIAYNYPQGVLTQTLRAAAAHQPGIISDIGIGTFVDPRQQGGKLNEVTKEDLIKLVEFDNKEYLYYKAIAPDIAFIRATTCDSEGYATFEDEVMYLDALVIAQAVHNNGGIVMMQVQKMVKKATLHPKSVRIPGYLVDIVVVDPDQTQLYGGAPVNRFISGDFTLDDSTKLSLPLNQRKLVARRALFEMRKGAVGNVGVGIADGIGLVAREEGCADDFILTVETGPIGGITSQGIAFGANVNTRAILDMTSQFDFYHGGGLDVCYLSFAEVDQHGNVGVHKFNGKIMGTGGFIDISATSKKIIFCGTLTAGSLKTEITDGKLNIVQEGRVKKFIRELPEITFSGKIALERGLDVRYITERAVFTLKEDGLHLIEIAPGVDLQKDILDKMDFTPVISPELKLMDERLFIDAAMGFVLPEAAH | 5.68 ± 0.1 h | 4.03 ± 0.058 h | 3.94 ± 0.05 h | 4.17 ± 0.1 h | 3.728 ± 0.031 h | 2.75 ± 0.29 h | 5.2 ± 0.61 h | 10.7 ± 1.1 h | 3.81 ± 0.14 h | 6.72 ± 0.91 h | 6.39 ± 0.56 h | 11.1 ± 0.4 h
2 | MSSLSQAASSVEKRTNARYWIVVMLFIVTSFNYGDRATLSIAGSEMAKDIGLDPVGMGYVFSAFSWAYVIGQIPGGWLLDRFGSKRVYFWSIFIWSMFTLLQGFVDIFSGFGIIVALFTLRFLVGLAEAPSFPGNSRIVAAWFPAQERGTAVSIFNSAQYFATVIFAPIMGWLTHEVGWSHVFFFMGGLGIVISFIWLKVIHEPNQHPGVNKKELEYIAAGGALINMDQQNTKVKVPFSVKWGQIKQLLGSRMMIGVYIGQYCINALTYFFITWFPVYLVQARGMSILKAGFVASVPAVCGFIGGVLGGIISDWLMRRTGSLNIARKTPIVMGMLLSMVMVFCNYVNVEWMIIGFMALAFFGKGIGALGWAVMADTAPKEISGLSGGLFNMFGNISGIVTPIAIGYIVGTTGSFNGALIYVGVHALIAVLSYLVLVGDIKRIELKPVAGQ |  |  |  |  |  |  | 5.06 h |  |  |  |  | 
3 | MIRLAPLITADVDTTTLPGGKASDAAQDFLALLSEALAGETTTDKAAPQLLVATDKPTTKGEPLISDIVSDAQQANLLIPVDETPPVINDEQSTSTPLTTAQTMALAAVADKNTTKDEKADDLNEDVTASLSALFAMLPGFDNTPKVTDAPSTVLPTEKPTLFTKLTSEQLTTAQPDDAPGTPAQPLTPLVAEAQSKAEVISTPSPVTAAASPLITPHQTQPLPTVAAPVLSAPLGSHEWQQSLSQHISLFTRQGQQSAELRLHPQDLGEVQISLKVDDNQAQIQMVSPHQHVRAALEAALPVLRTQLAESGIQLGQSNISGESFSGQQQAASQQQQSQRTANHEPLAGEDDDTLPVPVSLQGRVTGNSGVDIFA | 2.6 h |  |  |  |  | 0.287 h | 0.34 h |  |  |  |  | 
4 | MIPLQHGLILAAILFVLGLTGLVIRRNLLFMLIGLEIMINASALAFVVAGSYWGQTDGQVMYILAISLAAAEASIGLALLLQLHRRRQNLNIDSVSEMRG [P0AFE4] |  | 6.43 h | 7.8 h | > 8 h | 5.17 h | 3.31 h | 7.48 ± 0.41 h | 11.7 h |  |  | 7.16 ± 0.3 h | 13.1 ± 1.5 h
5 | MLIGYVRVSTNDQNTDLQRNALNCAGCELIFEDKISGTKSERPGLKKLLRTLSAGDTLVVWKLDRLGRSMRHLVVLVEELRERGINFRSLTDSIDTSTPMGRFFFHVMGALAEMERELIVERTKAGLETARAQGRIGGRRPKLTPEQWAQAGRLIAAGTPRQKVAIIYDVGVSTLYKRFPAGDK |  | 6.3 h |  |  |  |  |  | 5.3 h | 6.47 h |  | 6.11 h | 12.2 ± 1.1 h
6 | MTHDNKLQVEAIKRGTVIDHIPAQIGFKLLSLFKLTETDQRITIGLNLPSGEMGRKDLIKIENTFLSEDQVDQLALYAPQATVNRIDNYEVVGKSRPSLPERIDNVLVCPNSNCISHAEPVSSSFAVRKRANDIALKCKYCEKEFSHNVVLAN [P0A7F3] | 5.57 ± 0.82 h | 4.6 ± 0.65 h | 5.27 ± 1.8 h | 4.92 ± 0.13 h | 5.09 ± 0.11 h | 3.33 ± 0.51 h | 5.19 ± 0.14 h | 9.106 ± 0.024 h | 4.14 ± 0.12 h | 7.28 ± 0.48 h | 5.64 ± 0.66 h | 12.2 ± 1 h
7 | MDKIHAMQLFIKVAELESFSRAADFFALPKGSVSRQIQALEHQLGTQLLQRTTRRVKLTPEGMTYYQRAKDVLSNLSELDGLFQQDATSISGKLRIDIPPGIAKSLLLPRLSEFLYLHPGIELELSSHDRPVDILHDGFDCVIRTGALPEDGVIARPLGKLTMVNCASPHYLTRFGYPQSPDDLTSHAIVRYTPHLGVHPLGFEVASVNGVQWFKSGGMLTVNSSENYLTAGLAGLGIIQIPRIAVREALRAGRLIEVLPGYRAEPLSLSLVYPQRRELSRRVNLFMQWLAGVMKEYLD | 6.09 ± 0.38 h | 4.8 ± 0.34 h | 2.08 h | 3.35 ± 0.51 h | 2.76 h | 2.32 h | 3.43 ± 0.34 h | 7.24 ± 3.2 h |  |  |  | 
8 | MKKLLPILIGLSLSGFSSLSQAENLMQVYQQARLSNPELRKSAADRDAAFEKINEARSPLLPQLGLGADYTYSNGYRDANGINSNATSASLQLTQSIFDMSKWRALTLQEKAAGIQDVTYQTDQQTLILNTATAYFNVLNAIDVLSYTQAQKEAIYRQLDQTTQRFNVGLVAITDVQNARAQYDTVLANEVTARNNLDNAVEQLRQITGNYYPELAALNVENFKTDKPQPVNALLKEAEKRNLSLLQARLSQDLAREQIRQAQDGHLPTLDLTASTGISDTSYSGSKTRGAAGTQYDDSNMGQNKVGLSFSLPIYQGGMVNSQVKQAQYNFVGASEQLESAHRSVVQTVRSSFNNINASISSINAYKQAVVSAQSSLDAMEAGYSVGTRTIVDVLDATTTLYNAKQELANARYNYLINQLNIKSALGTLNEQDLLALNNALSKPVSTNPENVAPQTPEQNAIADGYAPDSPAPVVQQTSARTTTSNGHNPFRN | 6.4 ± 0.68 h |  | 7.27 ± 0.62 h | 6.96 ± 0.25 h | 6.09 ± 0.28 h | 3.15 ± 0.091 h | 6.46 ± 0.065 h | 12.5 ± 0.56 h | 5.95 ± 0.79 h | 13.3 ± 0.99 h | 5.09 ± 0.13 h | 10.7 ± 0.21 h
